Assay results reported in patent US7026292B1, “Compositions and therapeutic methods using morphogenic proteins and stimulatory factors” (Stryker Corporation, priority 1995, dated 2006).
Numbering of substitutions follows the chain as printed. Like-named read-outs stand apart in the source and are kept apart here.

Columns and labels:
[1] = system: FRC (fetal rat calvarial) cells; assay: Alkaline phosphatase (AP) activity assay in FRC cells; assay type: cell-based
Method: A preferred assay for testing potential MPSFs with OP-1 for osteogenic activity is the alkaline phosphatase (AP) enzymatic assay. AP is an osteoblast differentiation marker in primary osteoblastic FRC. (fetal rat calvarial) cells. The OP-1-stimulated AP activity is the result of increased steady-state AP mRNA levels as measured by Northern analysis. The procedure is generally as follows.
Primary osteoblast cell cultures were prepared from fetal rat calvaria using published procedures (M. A. Aronow et al., J. Cell Physiol., 143, pp. 213–221 (1990); T. K. McCarthy et al., J. Bone Miner. Res., 3, pp. 401–8 (1988)). Briefly, cells were harvested by sequential collagenase digestions of the calvarium and cells from digestions III to V were pooled. Fetal rat calvaria (FRC) cells were plated in complete medium (MEM, alpha; GIBCO/BRL, Grand Island, N.Y.) containing 10% fetal bovine serum, vitamin C (100 μg/ml), and antibiotics (100 U/ml penicillin, and […]). Cultures were incubated at 37° C. with 95% air/5% CO2 for several days to reach confluence. Cells were then subcultured for experimentations.
FRC cells were subcultured in 48-well plates (COSTAR, Cambridge, Mass.) in complete MEM medium with 10% fetal bovine serum until confluent in about 4 days. Confluent cells were rinsed with Hank's balanced salt solution (HBSS) and treated with serum-free α-MEM medium (with 0.1% BSA, 100 U/ml penicillin, and […]) containing the appropriate solvent vehicle (50% acetonitrile/0.1% trifluoroacetic acid for OP-1 treatment or 0.1N acetic acid for IGFI treatment) or recombinant human OP-1, or IGFI at the concentrations indicated. Solvent vehicle concentration in the culture medium never exceeded 0.1%. At the end of treatment, cells were lysed and total cellular alkaline phosphatase activity was measured (typically after 48 hours of treatment).
Total cellular alkaline phosphatase activity was determined using a commercial assay kit (Sigma, St. Louis, Mo.). Cell lysates were prepared by aspirating the medium from the 48-well plate, rinsing the cells with ice-cold PBS, and lysing the cells with 0.05% Triton X-100 and sonication for 60 sec. Alkaline phosphatase activity in the lysates was measured in 2-amino-2-methyl-1-propanol buffer (pH 10.3) with p-nitrophenyl phosphate as substrate at 37° C. Reactions were performed in 96-well plates for 1–2 h. Following color development, reactions were terminated with 0.5N NaOH. Absorbance of the reaction was measured at 405 nm using a Hewlett Packard Genenchem automatic plate reader. Total protein level in the lysates was measured according to Bradford (M. Bradford, Anal. Biochem., 72, pp. 248–54 (1976)) using bovine serum albumin as a standard. Alkaline phosphatase activity was expressed as nmol p-nitrophenol liberated per microgram of total cellular protein. […]
At least four experimental groups were tested: control cells treated with no OP-1 or MPSF; group I cells treated with increasing concentrations of MPSF alone; […]; and group III cells, […] concentrations of the MPSF.

[2] = cited from earlier work
[3] = Osteogenic activity of refolded E. coli-expressed constructs incorporated in a matrix; assay type: in vivo; conditions: refolded constructs from SDS gel slices incorporated in a matrix; histological examination
Excerpt: Samples of the various purified constructs and various mixtures of pairs of the constructs refolded together were applied to SDS polyacrylamide gels, separated by electrophoresis, sliced, incorporated in a matrix as disclosed below, and tested for osteogenic activity.

[4] = 200 nM PTH + 200 ng/ml OP-1, 48 hours (FIG. 9)

B1: OP-1: osteogenic protein OP-1 (BMP-7), morphogenic protein of the BMP family; recombinant human OP-1 used in FRC assays (protein, UniProt P18075 293-431, looked up)
Bone morphogenetic protein 7: STGSKQRSQNRSKTPKNQEALRMANVAENSSSDQRQACKKHELYVSFRDLGWQDWIIAPEGYAAYYCEGECAFPLNSYMNATNHAIVQTLVHFINPETVPKPCCAPTQLNAISVLYFDDSSNVILKKYRNMVVRACGCH
[1]; OP-1 500 ng/ml, 48 hours (FIG. 2)
  Stimulation of AP activity above vehicle-treated control culture: 1.6 fold
[2]; deglycosylated protein, about 27 kD
  Osteogenic activity: has osteogenic activity
[2]; native 30–35 kD protein in the reduced state
  Osteogenic activity: no detectable osteogenic activity

B2: PTH: parathyroid hormone, purchased from Sigma (protein, UniProt P01270 32-115, looked up)
Parathyroid hormone: SVSEIQLMHNLGKHLNSMERVEWLRKKLQDVHNFVALGAPLAPRDAGSQRPRKKEDNVLVESHEKSLGEADKADVNVLTKAKSQ
modifications: Parathyroid hormone
notes: parathyroid hormone, purchased from Sigma
[1]; [4]
  Level of AP activity relative to cells treated with OP-1 alone: about two-fold
  Level of AP activity relative to control cells: about five-fold
[1]; AP activity in FRC cells, OP-1 200 ng/ml (FIGS. 5–10)
  MPSF function in concert with OP-1 (figure title): is a MPSF in concert with OP-1
[1]; PTH 25 and 100 nM + 200 ng/ml OP-1, 48 hours (FIG. 9)
  Effect on OP-1-induced stimulation of AP activity: no effect
[1]; PTH 25–200 nM alone, 48 hours (FIG. 9)
  Stimulation of AP activity by PTH alone: did not stimulate AP activity
[1]; PTH at least about 50 nM + 200 ng/ml OP-1 + 25 ng/ml IGF-1
  Effect of PTH on AP activity induced by the OP-1/IGF-I combination: significantly increased

B3: COP5: synthetic consensus osteogenic protein, Seq. ID No. 2 (protein)
chain: LYVDFSDVGWDDWIVAPPGYQAFYCHGECPFPLADHFNSTNHAVVQTLVNSVNSKIPKACCVPTELSAISMLYLDENEKVVLKYNQEMVVEGCGCR
[3]
  Osteogenic activity: induce osteogenesis

B4: COP7: synthetic consensus osteogenic protein, Seq. ID No. 3 (protein)
chain: B3 chain with D11N, Q21H, F37L
[3]
  Osteogenic activity: induce osteogenesis
